Key:
[1] = molecular target: T1, Human VSIG4-L-His (human, UniProt Q9Y279 20-283); test: SPR (Biacore T200), Fab P.E. 1:5 over immobilised antigen
T1 construct: long isoform ECD with His tag; also called hVSIG4-L
T1 sequence: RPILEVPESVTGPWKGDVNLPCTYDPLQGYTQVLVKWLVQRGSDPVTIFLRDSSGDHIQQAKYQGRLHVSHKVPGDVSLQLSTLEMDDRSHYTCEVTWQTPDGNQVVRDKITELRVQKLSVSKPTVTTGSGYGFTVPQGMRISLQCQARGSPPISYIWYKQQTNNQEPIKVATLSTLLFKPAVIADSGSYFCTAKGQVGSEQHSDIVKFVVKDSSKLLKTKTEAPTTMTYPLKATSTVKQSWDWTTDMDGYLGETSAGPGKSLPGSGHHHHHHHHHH

[2] = molecular target: T2, Human VSIG4-L-Fc (human); test: blocking ELISA, biotin-iC3b on coated hVSIG4-L-Fc
T2 construct: also called hVSIG4-L-Fc; hVSIG4-L

[3] = molecular target: T3, Human VSIG4-S-Fc (human); test: ELISA, Fab P.E. 1:5 on coated antigen;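 note: mouse Fab P.E. samples in 1% skimmed milk PBS, bound to antigen-coated wells for 1 h at room temperature, read as absorbance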
T3 construct: short isoform ECD fused to human Fc1; also called hVSIG4-S

[4] = molecular target: T2, Human VSIG4-L-Fc; test: ELISA, Fab P.E. 1:5 on coated antigen;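 note: mouse Fab P.E. samples in 1% skimmed milk PBS, bound to antigen-coated wells for 1 h at room temperature, read as absorbance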
[5] = molecular target: T4, Cynomolgus Monkey VSIG4-L-His (cynomolgus monkey); test: ELISA, Fab P.E. 1:5 on coated antigen;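 note: mouse Fab P.E. samples in 1% skimmed milk PBS, bound to antigen-coated wells for 1 h at room temperature, read as absorbance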
T4 construct: ECD with His tag; also called cyVSIG4-L; cyno VSIG4-L-His
T4 chain: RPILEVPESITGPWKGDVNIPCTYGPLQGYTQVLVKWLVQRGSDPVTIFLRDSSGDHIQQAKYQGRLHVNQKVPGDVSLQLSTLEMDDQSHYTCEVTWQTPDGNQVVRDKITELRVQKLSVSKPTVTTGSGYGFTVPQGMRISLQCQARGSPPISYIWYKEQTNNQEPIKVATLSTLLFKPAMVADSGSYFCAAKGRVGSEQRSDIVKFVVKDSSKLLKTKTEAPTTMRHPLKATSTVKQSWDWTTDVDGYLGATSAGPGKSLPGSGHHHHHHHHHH

[6] = molecular target: T2, Human VSIG4-L-Fc; test: blocking ELISA, biotin-C3b on coated hVSIG4-L-Fc
[7] = molecular target: T1, Human VSIG4-L-His; test: SPR (FJB)
[8] = molecular target: T4, Cynomolgus Monkey VSIG4-L-His; test: SPR (FJB)
[9] = molecular target: T2, Human VSIG4-L-Fc; test: ligand blocking of iC3b, IgG
[10] = molecular target: T1, Human VSIG4-L-His; test: BLI, IgG on AHC sensor, antigen 100 nM
[11] = molecular target: T4, Cynomolgus Monkey VSIG4-L-His; test: BLI, IgG on AHC sensor, antigen 100 nM
[12] = molecular target: T5, Human VSIG4-L-CHO (human VSIG4 long isoform on CHO-K1 cells) (human, UniProt Q9Y279 20-399); test: flow cytometry, CHO-K1 cells expressing hVSIG4-L
T5 construct: also called hVSIG4-L (flow cytometry)
T5 sequence: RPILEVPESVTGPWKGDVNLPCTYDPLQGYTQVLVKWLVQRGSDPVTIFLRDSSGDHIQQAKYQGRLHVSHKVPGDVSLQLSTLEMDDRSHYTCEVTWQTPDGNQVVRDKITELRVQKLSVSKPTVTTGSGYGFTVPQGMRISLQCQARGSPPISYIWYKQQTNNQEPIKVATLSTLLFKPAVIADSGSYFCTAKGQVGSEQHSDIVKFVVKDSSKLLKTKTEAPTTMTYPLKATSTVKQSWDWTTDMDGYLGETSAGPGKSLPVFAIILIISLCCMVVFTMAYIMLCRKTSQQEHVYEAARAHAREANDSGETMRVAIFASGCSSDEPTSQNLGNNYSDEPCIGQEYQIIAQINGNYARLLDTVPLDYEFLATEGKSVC

[13] = molecular target: T2, Human VSIG4-L-Fc; test: BLI binning on hVSIG4-L-Fc, competitor 13H11 first;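 note: normalized to binding of second antibody without first competitor antibody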
[14] = molecular target: T5, Human VSIG4-L-CHO (human VSIG4 long …); test: flow cytometry (FJB), 200 nM mAb, huVSIG4-L CHO-K1 cells
[15] = molecular target: T2, Human VSIG4-L-Fc; test: BLI binning on hVSIG4-L-Fc, competitor 14D12 first;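 note: normalized to binding of second antibody without first competitor antibody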
[16] = molecular target: T2, Human VSIG4-L-Fc; test: BLI binning on hVSIG4-L-Fc, competitor 14C05 first;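 note: normalized to binding of second antibody without first competitor antibody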
[17] = molecular target: T2, Human VSIG4-L-Fc; test: ligand competition ELISA (FJB), blocked ligand C3b
[18] = molecular target: T2, Human VSIG4-L-Fc; test: BLI binning on hVSIG4-L-Fc, competitor 15A06 first;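 note: normalized to binding of second antibody without first competitor antibody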
[19] = molecular target: T2, Human VSIG4-L-Fc; test: BLI binning on hVSIG4-L-Fc, competitor 12A08 first;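 note: normalized to binding of second antibody without first competitor antibody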
[20] = molecular target: T2, Human VSIG4-L-Fc; test: BLI binning on hVSIG4-L-Fc, competitor 15C04 first;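 note: normalized to binding of second antibody without first competitor antibody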
[21] = molecular target: T2, Human VSIG4-L-Fc; test: ligand competition ELISA (FJB), blocked ligand iC3b
[22] = molecular target: T2, Human VSIG4-L-Fc; test: BLI binning on hVSIG4-L-Fc, competitor 15C03 first;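 note: normalized to binding of second antibody without first competitor antibody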
[23] = molecular target: T2, Human VSIG4-L-Fc; test: BLI binning on hVSIG4-L-Fc, competitor 16E03 first;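 note: normalized to binding of second antibody without first competitor antibody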
[24] = molecular target: T2, Human VSIG4-L-Fc; test: BLI binning on hVSIG4-L-Fc, competitor 16E10 first;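 note: normalized to binding of second antibody without first competitor antibody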
[25] = molecular target: T6, Mouse VSIG4-His (mouse); test: ELISA, IgG 50 nM on coated antigen;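 note: Mouse-human chimeric IgG4 antibodies incubated 1 h on plate-coated VSIG4 proteins, bound IgG detected with HRP-labelled anti-human IgG, irrelevant antibody and protein as specificity controls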
T6 construct: ECD with His tag; also called mVSIG4
T6 chain: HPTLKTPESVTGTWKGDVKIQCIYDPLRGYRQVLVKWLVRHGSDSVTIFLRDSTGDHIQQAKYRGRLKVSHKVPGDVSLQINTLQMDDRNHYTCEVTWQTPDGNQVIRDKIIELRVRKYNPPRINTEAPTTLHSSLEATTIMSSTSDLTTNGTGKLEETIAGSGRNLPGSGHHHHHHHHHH

[26] = molecular target: T3, Human VSIG4-S-Fc; test: ELISA, IgG 50 nM on coated antigen;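 note: Mouse-human chimeric IgG4 antibodies incubated 1 h on plate-coated VSIG4 proteins, bound IgG detected with HRP-labelled anti-human IgG, irrelevant antibody and protein as specificity controls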
[27] = molecular target: T2, Human VSIG4-L-Fc; test: ELISA, IgG 50 nM on coated antigen;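 note: Mouse-human chimeric IgG4 antibodies incubated 1 h on plate-coated VSIG4 proteins, bound IgG detected with HRP-labelled anti-human IgG, irrelevant antibody and protein as specificity controls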
[28] = molecular target: T4, Cynomolgus Monkey VSIG4-L-His; test: ELISA, IgG 50 nM on coated antigen;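 note: Mouse-human chimeric IgG4 antibodies incubated 1 h on plate-coated VSIG4 proteins, bound IgG detected with HRP-labelled anti-human IgG, irrelevant antibody and protein as specificity controls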
[29] = molecular target: T2, Human VSIG4-L-Fc; test: ligand blocking of C3b, IgG
[30] = molecular target: T1, Human VSIG4-L-His; test: BLI (Octet), IgG on AHC sensor, antigen 100 nM
[31] = molecular target: T7, Human VSIG4-S-His (human, UniProt Q9Y279 20-283); test: BLI (Octet), IgG on AHC sensor, antigen 100 nM
T7 construct: short isoform ECD with His tag; also called hVSIG4-S; VISG4-S-His
T7 sequence: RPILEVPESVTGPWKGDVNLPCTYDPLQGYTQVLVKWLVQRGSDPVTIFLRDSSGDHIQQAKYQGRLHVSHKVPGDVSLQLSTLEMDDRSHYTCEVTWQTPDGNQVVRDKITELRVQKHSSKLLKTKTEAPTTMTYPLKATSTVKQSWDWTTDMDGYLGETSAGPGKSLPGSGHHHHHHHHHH

[32] = molecular target: T4, Cynomolgus Monkey VSIG4-L-His; test: BLI (Octet), IgG on AHC sensor, antigen 100 nM
[33] = molecular target: T5, Human VSIG4-L-CHO (human VSIG4 long …); test: flow cytometry (FJB), 200 nM mAb, huVSIG4-L CHO-K1 over parental CHO-K1
[34] = molecular target: T2, Human VSIG4-L-Fc; test: BLI binning on hVSIG4-L-Fc, competitor 12A12 first;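 note: normalized to binding of second antibody without first competitor antibody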

T2 sequence (chain, as listed by the source limits assumed): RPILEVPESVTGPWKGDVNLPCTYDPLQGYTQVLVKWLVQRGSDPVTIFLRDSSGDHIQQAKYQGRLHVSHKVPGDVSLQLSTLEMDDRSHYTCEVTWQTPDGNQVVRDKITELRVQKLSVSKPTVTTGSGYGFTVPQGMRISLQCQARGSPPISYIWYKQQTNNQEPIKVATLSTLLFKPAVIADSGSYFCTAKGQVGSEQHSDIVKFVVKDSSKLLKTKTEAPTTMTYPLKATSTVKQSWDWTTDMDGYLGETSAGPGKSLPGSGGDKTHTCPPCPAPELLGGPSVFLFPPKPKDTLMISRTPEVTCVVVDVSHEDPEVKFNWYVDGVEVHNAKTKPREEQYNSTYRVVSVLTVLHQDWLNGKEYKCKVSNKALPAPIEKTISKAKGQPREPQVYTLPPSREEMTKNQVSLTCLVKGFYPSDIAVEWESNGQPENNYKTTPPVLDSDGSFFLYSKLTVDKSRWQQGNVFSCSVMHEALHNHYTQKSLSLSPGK

B1: 15A06 mouse Fab (periplasmic extract) (Fab, V domains shown)
VH: QVQMKQSGPSLVRPSQTLSLTCSVTGDSITSGYWNWIRKFPGDKFEYLGYISYSGFTYYNPSLKSRVSITRDTSKNQYYLQLHSVTTEDTATYYCASSKYGSSLGFPYWGQGTLVTVSA
VL: DVVMTQTPLSLPVSLGDQASISCRSSQSLVHSNGNTYLHWYLQKPGQSPKLLIYKVSNRFSGVPDRFSGSGSGTDFTLKISRVEAEDLGVYFCSQSTHVPFTFGSGTKLEIK
notes: mouse Fab with C-terminal His6-c-myc tag
koff [1]: 0.0015 s⁻¹
Percent Blocking iC3b [2]: 1.4%
ELISA OD450 [3]: 0.06 OD450
ELISA OD450 [4]: 4.42 OD450
ELISA OD450 [5]: 0.05 OD450

B2: 13H11 mouse Fab (periplasmic extract) (Fab, V domains shown)
VH: QIQLVQSGPELKKPGETVKISCKASGYTFENFGMNWVKQAPGKGLKWMGWINTYTGEATYADDFKGRFAFSLETSASTAYLQINNLKNEDTATYFCARDGGFRHFDVWGAGTTVTVSS
VL: ETTVTQSPASLSVATGEKVTIRCITSTDIDDDMNWYQQKPGEPPKLLISEGNTLRPGVPSRFSSSGYGTDFVFTIENMLSEDVADYYCLQSDNLPLTFGAGTKLELK
notes: as for B1
koff [1]: 0.045 s⁻¹
Percent Blocking C3b [6]: 46.9%
ELISA OD450 [3]: 0.06 OD450
ELISA OD450 [4]: 4.33 OD450
ELISA OD450 [5]: 4.34 OD450

B3: 12A08 mouse Fab (periplasmic extract) (Fab, V domains shown)
VH: EVMLVESGGGLVKPGGSLKLSCAASGFTFDDFYMYWVRQTPEKRLEWVASISDGGTYTYYPDSVKGRFTISRDNAKNTLYLQLSSLKSEDTAMYYCARGVDKYYYAMDYWGQGTSVTVSS
VL: QILLTQSPAIMSASPGEKVTITCSASSSVSYMHWFQQKPGTSPKLWIYSTSNLASGVPARFSGSGSGTSYSLTISRMEAEDAATYYCQQRSSYPLTFGAGTKLELK
notes: as for B1
koff [1]: 0.013 s⁻¹
Percent Blocking iC3b [2]: 53.4%
Percent Blocking C3b [6]: 57.6%
ELISA OD450 [3]: 4.09 OD450
ELISA OD450 [4]: 4.45 OD450
ELISA OD450 [5]: 4.27 OD450

B4: 14D12 mouse/human chimeric IgG4 (S228P) kappa (antibody, V domains shown)
VH: QIQLVQSGPELKKPGETVKISCKASGYTFTNYGMNWVKQTPGKGLKWMGLINTYTGEPTYADDFKGRFAFSLETSASTAYLQINNLKNEDMATYFCARERIYGYLHYFDYWGQGTTLTVSS
VL: DVVMTQTPASLAVSLGQRATISCKASQSVDYDGDSYMNWYQQKPGQPPKLLIYAASNLESGIPARFSGSGSGTDFTLNIHPVEEEDAATYYCQQSNEDPRTFGGGTKLEIKR
Kd [7]: 10.5 nM
Kd [8]: 4.4 nM
Percent Blocking iC3b [9]: 98%
KD relative to parental chimera [10]: 1 fold
KD relative to parental chimera [11]: 1 fold
EC50 [12]: 2.8 nM
normalized maximum binding nm shift [13]: 0.69 normalized
Binding (200 nM) MFI [14]: 36400 MFI
normalized maximum binding nm shift [15]: 0.08 normalized
normalized maximum binding nm shift [16]: 0.12 normalized
IC50 [17]: 0.8 nM
normalized maximum binding nm shift [18]: 0.75 normalized
normalized maximum binding nm shift [19]: 0.73 normalized
normalized maximum binding nm shift [20]: 0.8 normalized
IC50 [21]: 0.6 nM
normalized maximum binding nm shift [22]: 0.59 normalized
normalized maximum binding nm shift [23]: 0.68 normalized
normalized maximum binding nm shift [24]: 0.93 normalized
ELISA OD450 [25]: 0.05 OD450
ELISA OD450 [26]: 3.43 OD450
ELISA OD450 [27]: 4.53 OD450
ELISA OD450 [28]: 4.52 OD450
Percent Blocking C3b [29]: 97%
Kd [30]: 21.5 nM
Kd [31]: 28.7 nM
Kd [32]: 16.1 nM
Binding (200 nM) Fold-Over-Parental [33]: 112 fold
normalized maximum binding nm shift [34]: 0.75 normalized

B5: 15C03 mouse Fab (periplasmic extract) (Fab, V domains shown)
VH: EVKLLESGPGLVKPSQSLSLTCTVTGYSITSDYAWNWIRQFPGNKLEWMGYISYSGSTRYNPSLKSRISITRDTSNNQFFLQLNSVTTEDTATYYCARSGYAAMDYWGQGTSVTVSS
VL: ENVLTQSPAIMSASPGEKVTMTCRASSSVSSSYLHWYQQKSGASPKLWIYSTSNLASGVPARFSGSGSGTSYSLTISSVEAEDAATYYCQQYSGYPLTFGSGTKLEIK
notes: as for B1
koff [1]: 0.0076 s⁻¹
Percent Blocking C3b [6]: 42.7%
ELISA OD450 [3]: 4.05 OD450
ELISA OD450 [4]: 4.2 OD450
ELISA OD450 [5]: 0.05 OD450
